Results taken from patent US20200308301A1 (Novartis, published 2020).

Experiments:
[1] = target: Human FXI in normal human plasma (human, UniProt P03951 19-625); test: cell-based or functional assay
IDT3 = target: T1, IDT3; test: SET: soluble NOV1401 titrated against constant IDT3 Fab; competitor is plate-bound biotinylated NOV1401; free Fab read as RLU
T1 construct: Fab; also called anti-NOV1401 Fab IDT3
Method: (§1) 14 serial (2×) dilutions of NOV1401 were prepared in sample buffer (PBS pH 7.4 containing 0.5% (w/v) BSA and 0.02% Tween 20) and a constant concentration of the anti-NOV1401 Fab or IgG was added to each NOV1401 concentration ranging from 40 pM to 240 pM. Optimal constant anti-NOV1401 Fab or IgG concentrations and optimal starting concentrations for NOV1401 dilution series were determined in pilot experiments.
(§2) 30 µl/well of each dilution mix was distributed in duplicates to a 384-well polypropylene Eppendorf microplate (MTP). Sample buffer served as negative control and a sample containing no antigen as positive control (Bmax). The plate was sealed and incubated overnight at RT on a plate shaker.
(§3) After incubation and three times washing with PBST (PBS containing 0.05% Tween 20) 30 μl/well of the NOV1401/anti-NOV1401 Fab or IgG preparation was transferred from the polypropylene MTP to the NOV1401-coated SA plate and incubated for 30 min at RT on a MTP shaker. After three additional wash steps, 30 μl of 0.5 μg/ml detection antibody (Goat anti-human Kappa LC-HRP, BETHYL # A80-115P) diluted in sample buffer was added to each well and incubated for 1 h at RT with shaking. […] Electrochemiluminescence (ECL) signals were generated and detected immediately with a luminescence imager (SpectraMax M5, Molecular Devices, LLC).

IDT4 = target: T2, IDT4; test: SET: soluble NOV1401 titrated against constant IDT4 Fab; competitor is plate-bound biotinylated NOV1401; free Fab read as RLU
T2 construct: Fab; also called anti-NOV1401 Fab IDT4
Method: as §1, §2, §3

IDT5 = target: T3, IDT5; test: SET: soluble NOV1401 titrated against constant IDT5 Fab; competitor is plate-bound biotinylated NOV1401; free Fab read as RLU
T3 construct: Fab; also called anti-NOV1401 Fab IDT5
Method: as §1, §2, §3

IDT7 = target: T4, IDT7; test: SET: soluble NOV1401 titrated against constant IDT7 Fab; competitor is plate-bound biotinylated NOV1401; free Fab read as RLU
T4 construct: Fab; also called anti-NOV1401 Fab IDT7
Method: as §1, §2, §3

IDT8 = target: T5, IDT8; test: SET: soluble NOV1401 titrated against constant IDT8 Fab; competitor is plate-bound biotinylated NOV1401; free Fab read as RLU
T5 construct: Fab; also called anti-NOV1401 Fab IDT8
Method: as §1, §2, §3

IDT9 = target: T6, IDT9; test: SET: soluble NOV1401 titrated against constant IDT9 Fab; competitor is plate-bound biotinylated NOV1401; free Fab read as RLU
T6 construct: Fab; also called anti-NOV1401 Fab IDT9
Method: as §1, §2, §3

IDT10 = target: T7, IDT10; test: SET: soluble NOV1401 titrated against constant IDT10 Fab; competitor is plate-bound biotinylated NOV1401; free Fab read as RLU
T7 construct: Fab; also called anti-NOV1401 Fab IDT10
Method: as §1, §2, §3

IDT11 = target: T8, IDT11; test: SET: soluble antigen (NOV1401 by the legend and Example 2, axis labelled MAA868) titrated against constant IDT11 IgG; competitor is plate-bound biotinylated NOV1401; free IgG read as RLU
T8 construct: also called anti-NOV1401 IgG IDT11; full length IgG format for IDT1
Method: as §1, §2, §3

IDT12 = target: T9, IDT12; test: SET: soluble antigen (NOV1401 by the legend and Example 2, axis labelled MAA868) titrated against constant IDT12 IgG; competitor is plate-bound biotinylated NOV1401; free IgG read as RLU
T9 construct: also called anti-NOV1401 IgG IDT12; full length IgG format for IDT2
Method: as §1, §2, §3

B1: NOV1401 (antibody, human IgG1, lambda, V domains shown)
VH: QVQLLESGGGLVQPGGSLRLSCAASGFTFSTAAMSWVRQAPGKGLEWVSGISGSGSSTYYADSVKGRFTISRDNSKNTLYLQMNSLRAEDTAVYYCARELSYLYSGYYFDYWGQGTLVTVSS
VL: QSVLTQPPSASGTPGQRVTISCSGSSSNIGSNDVSWYQQLPGTAPKLLIYKNYNRPSGVPDRFSGSKSGTSASLAISGLQSEDEADYYCSAWDQRQFDVVFGGGTKLTVLG
notes: It was amine-coupled to the chip in SPR, and used soluble and biotinylated in SET; also called anti-FXI/FXIa antibody NOV1401; anti-Factor XI/FXIa antibody NOV1401
TGA in human plasma: IC50 of NOV1401 for reduction of peak thrombin [1]: 0.05 µM | binding result (IDT3): binds | binding result (IDT4): binds | binding result (IDT5): binds | binding result (IDT7): binds | binding result (IDT8): binds | binding result (IDT9): binds | binding result (IDT10): binds | IC50 (read off the curve) (IDT11): ~8 pM | IC50 (read off the curve) (IDT12): ~10 pM
